# According to paper PMC3489827 (PLoS ONE, 2012):
# B1: HeV-G globular head domain (174–602) (domain or fragment)
# chain: ISQGVSDLVGLPNQICLQKTTSTILKPRLISYTLPINTREGVCITDPLLAVDNGFFAYSHLEKIGSCTRGIAKQRIIGVGEVLDRGDKVPSMFMTNVWTPPNPSTIHHCSSTYHEDFYYTLCAVSHVGDPILNSTSWTESLSLIRLAVRPKSDSGDYNQKYIAITKVERGKYDKVMPYGPSGIKQGDTLYFPAVGFLPRTEFQYNDSNCPIIHCKYSKAENCRLSMGVNSKSHYILRSGLLKYNLSLGGDIILQFIEIADNRLTIGSPSKIYNSLGQPVFYQASYSWDTMIKLGDVDTVDPLRVQWRNNSVISRPGQSQCPRFNVCPEVCWEGTYNDAFLIDRLNWVSAGVYLNSNQTAENPVFAVFKDNEILYQVPLAEDDTNAQKTITDCFLLENVIWCISLVEIYDTGDSVIRPKLFAVKIPAQCS
# Key:
# [1] = biological target: HeV-G globular head domain (174–602) (Hendra virus) (UniProt O89343); assay: crystal structure
# Ephrin-B2 (S27-D167) = biological target: T1, Ephrin-B2 (S27-D167) (UniProt P52799 27-167); assay: crystal structure; settings: both partners purified
# T1 construct: also called ephrin-B2 receptor; not shown: Fc, C-terminal, cleaved
# T1 sequence (looked up): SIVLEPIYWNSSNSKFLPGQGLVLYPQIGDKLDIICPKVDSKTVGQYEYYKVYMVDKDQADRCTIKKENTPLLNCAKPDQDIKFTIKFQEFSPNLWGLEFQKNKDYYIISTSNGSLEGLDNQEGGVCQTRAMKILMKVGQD
Molecule,stoichiometry N [1],stoichiometry N (Ephrin-B2 (S27-D167))
HeV-G globular head domain (174–602) (from UniProt O89343 174-602) (domain or fragment),2,
B1,,1
